Experimental data reported in IntAct's records for PubMed 23524951.

B1: Activating molecule in BECN1-regulated autophagy protein 1 (Homo sapiens), Q9C0C7-3 (parent)
chain: MKVVPEKNAVRILWGRERGARAMGAQRLLQELVEDKTRWMKWEGKRVELPDSPRSTFLLAFSPDRTLLASTHVNHNIYITEVKTGKCVHSLIGHRRTPWCVTFHPTISGLIASGCLDGEVRIWDLHGGSESWFTDSNNAIASLAFHPTAQLLLIATANEIHFWDWSRREPFAVVKTASEMERVRLVRFDPLGHYLLTAIVNPSNQQGDDEPEIPIDGTELSHYRQRALLQSQPVRRTPLLHNFLHMLSSRSSGIQVGEQSTVQDSATPSPPPPPPQPSTERPRTSAYIRLRQRVSYPTAECCQHLGILCLCSRCSGTRVPSLLPHQDSVPPASARATTPSFSFVQTEPFHPPEQASSTQQDQGLLNRPSAFSTVQSSTAGNTLRNLSLGPTRRSLGGPLSSHPSRYHREIAPGLTGSEWTRTVLSLNSRSEAESMPPPRTSASSVSLLSVLRQQEGGSQASVYTSATEGRGFPASGLATESDGGNGSSQNNSGSIRHELQCDLRRFFLEYDRLQELDQSLSGEAPQTQQAQEMLNNNIESERPGPSHQPTPHSSENNSNLSRGHLNRCRACHNLLTFNNDTLRWERTTPNYSSGEASSSWQVPSSFESVPSSGSQLPPLERTEGQTPSSSRLELSSSASPQEERTVGVAFNQETGHWERIYTQSSRSGTVSQEALHQDMPEESSEEDSLRRLSPAAYYAQRMIQYLSRRDSIRQRSMRYQQNRLRSSTSSSSSDNQGPSVEGTDLEFEDFEDNGDRSRHRAPRNARMSAPSLGRFVPRRFLLPEYLPYAGIFHERGQPGLATHSSVNRVLAGAVIGDGQSAVASNIANTTYRLQWWDFTKFDLPEISNASVNVLVQNCKIYNDASCDISADGQLLAAFIPSSQRGFPDEGILAVYSLAPHNLGEMLYTKRFGPNAISVSLSPMGRYVMVGLASRRILLHPSTEHMVAQVFRLQQAHGGETSMRRVFNVLYPMPADQRRHVSINSARWLPEPGLGLAYGTNKGDLVICRPEALNSGVEYYWDQLNETVFTVHSNSRSSERPGTSRATWRTDRDMGLMNAIGLQPRNPATSVTSQGTQTLALQLQNAETQTEREVPEPGTAASGPGEGEGSEYGASGEDALSRIQRLMAEGGMTAVVQREQSTTMASMGGFGNNIIVSHRIHRSSQTGTEPGAAHTSSPQPSTSRGLLPEAGQLAERGLSPRTASWDQPGTPGREPTQPTLPSSSPVPIPVSLPSAEGPTLHCELTNNNHLLDGGSSRGDAAGPRGEPRNR
partner: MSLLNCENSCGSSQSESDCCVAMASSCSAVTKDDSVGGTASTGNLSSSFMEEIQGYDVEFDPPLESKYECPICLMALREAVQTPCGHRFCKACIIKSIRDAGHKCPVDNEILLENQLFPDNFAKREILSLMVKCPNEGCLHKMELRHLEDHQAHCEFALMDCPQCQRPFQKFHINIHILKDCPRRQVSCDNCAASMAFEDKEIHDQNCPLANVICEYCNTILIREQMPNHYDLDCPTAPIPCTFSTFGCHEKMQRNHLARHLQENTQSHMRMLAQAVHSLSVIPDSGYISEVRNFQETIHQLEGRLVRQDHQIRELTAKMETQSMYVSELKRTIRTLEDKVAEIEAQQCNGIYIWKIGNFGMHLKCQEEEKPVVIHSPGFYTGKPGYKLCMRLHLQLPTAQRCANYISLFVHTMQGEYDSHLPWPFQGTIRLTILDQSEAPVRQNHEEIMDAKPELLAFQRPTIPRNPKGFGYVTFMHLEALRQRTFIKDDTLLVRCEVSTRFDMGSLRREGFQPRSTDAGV

Variants of: B1
Conditions: with traf6_human TRAF6, Q9Y4K3

Variant | effect of a mutation on the interaction
E620A | disrupting interaction strength
